This note sets out measurements from article doi:10.1101/2025.02.21.639368.

For the assay, the target named is H1 NC99 HA trimer (full-length trimeric ectodomain of H1N1 A/New Caledonia/20/1999 hemagglutinin) (influenza A virus H1N1 A/New Caledonia/20/1999). The assay can be described thus: cryo-EM structure; HA NC99 and Fab mixed at a molar ratio of 1:1.5 (HA protomer:Fab), 5 min at room temperature; graphene grids, 0.01 mg/ml.

What is called stoichiometry N is a count of units in the complex or per binding partner. As to “H1 NC99 HA trimer (full-length trimeric ectodomain of H1N1 A/New Caledonia/20/1999 hemagglutinin) (natural protein)”, the stoichiometry N worked out at 3.
